Experimental data published in patent publication US20130101549A1 (Biogen, published 2013).

Assays:
human HVEM-Ig [1] = target: T1, human HVEM-Ig (human, UniProt Q92956 39-202); experiment: FACS (HVEM column of Table 2; format not told there)
T1 construct: Expressed and purified in house; also called HVEM-Fc; Herpes virus entry mediator-Ig
T1 sequence (looked up): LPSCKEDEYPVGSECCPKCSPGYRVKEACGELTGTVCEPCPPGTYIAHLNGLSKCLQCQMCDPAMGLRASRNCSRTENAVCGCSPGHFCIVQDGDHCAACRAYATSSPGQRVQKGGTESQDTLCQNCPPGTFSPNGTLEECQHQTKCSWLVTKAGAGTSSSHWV

human LTβR-Ig [2] = target: T2, human LTβR-Ig (human, UniProt P36941 31-227); experiment: ELISA on coated LTbR-Ig
T2 construct: Expressed and purified in house; also called hLTbR-Ig; human LTBR-Ig
Description: (§1) Human and murine ErbB2-Fc were obtained from R&D Systems. Wells of 96-well plates were coated with 2 ug/ml or 0.2 ug/ml of human or murine HER2-Fc by incubation overnight at 4-8° C. with either of these six proteins (80 ul/well of a 0.2 or 2 ug/ml solution in PBS). Wells were emptied, filled completely with a solution of PBS with 1% BSA (blocking buffer) and incubated at room temperature for 1 hour. Wells were emptied, washed twice PBS containing 0.05% Tween 20 (PBST) and filled with the samples (80 ul/well of 3× dilution series of the standard and supernatants in blocking buffer) prepared in another 96-well plate. After a 2-hour incubation at room temperature, the wells were emptied, washed three times with PBST and filled with a solution of HRP-conjugated goat pAbs anti-human kappa chain (80 ul/well of a 2000-fold dilution in blocking buffer). After 1-hour incubation, the wells were emptied and filled with a solution of HRP substrate prepared freshly. The color was left to develop for 3 minutes and was stopped by addition of an equal volume of 1N H₂SO₄. Absorbance was measured at 450 nm using a Plate Reader (SpectraMax, Molecular Devices). The data was processed and graphs were created using SoftMax Pro software.
Human and murine LTBR-Ig were expressed and purified in house.

human HVEM-Ig [3] = target: T1, human HVEM-Ig; experiment: Octet biolayer interferometry, receptor-Fc on anti-human Fc biosensor, culture supernatant
Description: (§2) Anti-human Fc-specific biosensors (Fortebio SKU 18-0001) were hydrated in OB (1×PBS supplemented with 1 mg/ml BSA, 0.05% NaN₃, and 0.02% TWEEN 20) for at least five minutes prior to assays. For each assay, the respective receptor—Fc fusion was diluted to 10 μg/ml in OB and allowed to bind to the biosensors for five minutes. The sensors were then incubated in the indicated culture supernatant for an additional five minutes, and subsequently transferred to fresh wells […].

human LTβR-Ig [4] = target: T2, human LTβR-Ig; experiment: as above
Description: as §2

human HER2-Fc [5] = target: T3, human HER2-Fc (human, UniProt P04626 23-652); experiment: as above
T3 construct: Bought from R&D Systems: homodimeric fusion of the HER2 extracellular domain and human IgG1 Fc; also called human ErbB2-Fc; rhErbB2-Fc; not shown: Fc fragment of human IgG1
Description: as §2

human HER2-Fc [6] = target: T3, human HER2-Fc; experiment: ELISA on coated huHER2-Fc, HRP anti-human kappa; the number is C of the printed 4-P fit (A -0.059, B 0.832, D 1.098, R^2 0.998); x axis: Fab equivalent concentration
[7] = target: human LTβR on tumor cells (human, UniProt P36941 31-435); experiment: cell-based or functional assay
human LTβR-Ig [8] = target: T2, human LTβR-Ig; experiment: FACS (LTbR column of Table 2; format not told there)
human HER2-Fc [9] = target: T3, human HER2-Fc; experiment: ELISA on coated HER2-Fc
Description: as §1

human HVEM-Ig [10] = target: T1, human HVEM-Ig; experiment: ELISA on coated HVEM-Ig
Description: as §1
Human and murine HVEM-Ig were expressed and purified in house.

[11] = target: T4, human HER2/ErbB2 on cells (human, UniProt P04626 23-1255); experiment: FACS on HER2-expressing cells
T4 construct: whole, on cells; also called hHER2/ErbB2; wild type HER2/ErbB

murine HER2-Fc [12] = target: T5, murine HER2-Fc (mouse; human, UniProt P70424 23-653); experiment: ELISA on coated muHER2-Fc, HRP anti-human kappa; the number is C of the printed 4-P fit (A 0.005, B 1.068, D 0.84, R^2 0.999); x axis: Fab equivalent concentration
T5 construct: extracellular domain; Bought from R&D Systems; also called murine ErbB2-Fc; not shown: Fc fragment of human IgG1

murine HER2-Fc [13] = target: T5, murine HER2-Fc; experiment: ELISA on coated muHER2-Fc, HRP anti-human kappa; the number is C of the printed 4-P fit (A 0.008, B 1.027, D 0.896, R^2 1); x axis: Fab equivalent concentration
Description: as §1, with “Wells” for “Human and murine ErbB2-Fc were obtained from R&D Systems. Wells”, “coated” for “coated with 2 ug/ml or 0.2 ug/ml of human or murine HER2-Fc”, “goat antibodies against human kappa chain” for “either of these six proteins”, “5” for “0.2 or 2”
Human and murine HER2-Fc (homodimeric fusion proteins consisting of the extracellular domain of HER2 and the Fc fragment of human IgG1) were obtained from R&D Systems. […]

human HER2-Fc [14] = target: T3, human HER2-Fc; experiment: ELISA on coated huHER2-Fc, HRP anti-human kappa; the number is C of the printed 4-P fit (A 0.006, B 1.142, D 0.89, R^2 1); x axis: Fab equivalent concentration
human LTBR-mIgG fusion = target: T6, human LTBR-mIgG fusion; experiment: sandwich ELISA after incubation at 200 ng/ml in human serum (cold or 37°C overnight): HER2-Fc on the plate, human LTBR-mIgG, HRP anti-mouse IgG; the signal needs both bindings at once
T6 construct: kept apart from m25 (human Fc); not shown: exact end of the LTBR part
Description: An ELISA assay was developed to detect LIGHT-Ab fusions after incubation with human sera. Briefly, 200 ng/mL of LIGHT-Ab fusions were incubated overnight in human serum at 37° C. The serum was assayed in sandwich ELISA as follows. HER2-Fc was immobilized to a solid surface, and was used to capture the LIGHT-Ab fusions. The serum incubated fusion proteins were added to the solid surface. Detection was effected using a human LTBR-mIgG fusion to bind to the LIGHT moiety of the fusion. Horseradish peroxidase (HRP) labeled anti-mouse IgG was used to detect bound LIGHT-Ab fusions.

Sequence of human LTβR on tumor cells (P36941 31-435): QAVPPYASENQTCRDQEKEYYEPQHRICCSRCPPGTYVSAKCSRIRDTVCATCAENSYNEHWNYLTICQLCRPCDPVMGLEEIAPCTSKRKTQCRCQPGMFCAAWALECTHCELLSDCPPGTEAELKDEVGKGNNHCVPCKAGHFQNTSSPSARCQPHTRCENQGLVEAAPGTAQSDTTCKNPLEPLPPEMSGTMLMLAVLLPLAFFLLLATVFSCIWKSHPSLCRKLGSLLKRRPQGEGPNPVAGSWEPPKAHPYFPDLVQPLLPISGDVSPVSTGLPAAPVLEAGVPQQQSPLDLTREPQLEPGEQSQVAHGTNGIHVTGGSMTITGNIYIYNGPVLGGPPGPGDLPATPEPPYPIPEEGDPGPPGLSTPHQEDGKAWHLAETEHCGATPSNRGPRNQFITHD
T2 sequence (P36941 31-227): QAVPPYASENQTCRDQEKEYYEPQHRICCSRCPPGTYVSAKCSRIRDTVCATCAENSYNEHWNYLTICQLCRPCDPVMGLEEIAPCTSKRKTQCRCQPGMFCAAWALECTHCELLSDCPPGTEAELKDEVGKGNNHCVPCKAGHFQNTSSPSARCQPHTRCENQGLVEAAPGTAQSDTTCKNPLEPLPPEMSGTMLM
T5 sequence (P70424 23-653): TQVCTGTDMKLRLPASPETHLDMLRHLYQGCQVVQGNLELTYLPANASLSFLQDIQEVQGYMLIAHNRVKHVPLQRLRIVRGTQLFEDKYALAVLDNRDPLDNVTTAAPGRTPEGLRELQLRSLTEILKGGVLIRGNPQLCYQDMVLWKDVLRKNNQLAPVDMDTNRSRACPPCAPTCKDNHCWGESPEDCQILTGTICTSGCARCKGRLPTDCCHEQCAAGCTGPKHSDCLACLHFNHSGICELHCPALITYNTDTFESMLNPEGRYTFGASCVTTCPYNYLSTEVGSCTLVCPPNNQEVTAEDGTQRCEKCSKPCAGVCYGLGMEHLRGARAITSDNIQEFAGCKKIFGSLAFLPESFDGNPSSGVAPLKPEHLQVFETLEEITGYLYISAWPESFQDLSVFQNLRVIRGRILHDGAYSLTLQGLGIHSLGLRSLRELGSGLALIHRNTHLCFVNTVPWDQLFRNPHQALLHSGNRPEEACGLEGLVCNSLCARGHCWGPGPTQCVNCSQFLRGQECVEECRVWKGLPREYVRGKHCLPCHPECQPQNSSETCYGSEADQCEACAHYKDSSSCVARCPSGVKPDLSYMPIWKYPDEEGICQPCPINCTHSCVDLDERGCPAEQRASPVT
T6 sequence (chain, as listed by the source limits assumed): as the sequence (P36941 31-227) above

B1: 71F10 Fab-hLIGHT fusion with the delta 4 linker (BIIB71F10-130) (other)
heavy: EVQLLESGGGLVQPGGSLRLSCAASGFTFSSYGMVWVRQAPGKGLEWVSSISSSGGLTWYADSVKGRFTISRDNSKNTLYLQMNSLRAEDTAVYYCASPPGIAVARDYWGQGTLVTVSSASTKGPSVFPLAPSSKSTSGGTAALGCLVKDYFPEPVTVSWNSGALTSGVHTFPAVLQSSGLYSLSSVVTVPSSSLGTQTYICNVNHKPSNTKVDKKVEPKSCDKLHWRLGEMVTRLPDGPAGSWQERRSHEVNPAAHLTGANSSLTGSGGPLLWETQLGLAFLRGLSYHDGALVVTKAGYYYIYSKVQLGGVGCPLGLASTITHGLYKRTPRYPEELELLVSQQSPCGRATSSSRVWWDSSFLGGVVHLEAGEEVVVRVLDERLVRLRDGTRSYFGAFMV
light: DIQMTQSPSSLSASVGDRVTITCRASQGISNYLAWYQQKPGKVPKLLIYAASTLQSGVPSRFSGSGSGTDFTLTISSLQPEDVATYYCQKYNSALLTFGGGTKVEIKRTVAAPSVFIFPPSDEQLKSGTASVVCLLNNFYPREAKVQWKVDNALQSGNSQESVTEQDSKDSTYSLSSTLTLSKADYEKHKVYACEVTHQGLSSPVTKSFNRGEC
notes: Fab heavy chain - linker - human LIGHT extracellular part; assembles as a trimer of Fab-LIGHT units; also called pBIIB71F10-130; LIGHT fusion #130
- EC50 (human HVEM-Ig [1]): 0.5 nM
- EC50 (human LTβR-Ig [2]): 0.01 nM
- koff (human HVEM-Ig [3]): 0.000122 s⁻¹
- koff (human LTβR-Ig [4]): 0.000168 s⁻¹
- koff (human HER2-Fc [5]): 0.000112 s⁻¹
- EC50 (human HER2-Fc [6]): 0.00955 µg/mL
- fold difference of gene expression, treated/untreated HT29 cells (qRT-PCR): CCL2 (MCP-1) [7]: 1050 fold
- fold difference of gene expression, treated/untreated HT29 cells (qRT-PCR): CCL5 (RANTES) [7]: 1220 fold
- fold difference of gene expression, treated/untreated HT29 cells (qRT-PCR): CCL7 (MCP-3) [7]: -527 fold
- fold difference of gene expression, treated/untreated HT29 cells (qRT-PCR): CCL21 [7]: 546 fold
- fold difference of gene expression, treated/untreated HT29 cells (qRT-PCR): CCR4 [7]: 1650 fold
- fold difference of gene expression, treated/untreated HT29 cells (qRT-PCR): CXCL2 [7]: 1130 fold
- fold difference of gene expression, treated/untreated HT29 cells (qRT-PCR): CXCL3 [7]: 1090 fold
- fold difference of gene expression, treated/untreated HT29 cells (qRT-PCR): CXCL5 (ENA-78/LIX) [7]: 1810 fold
- fold difference of gene expression, treated/untreated HT29 cells (qRT-PCR): CXCL9 [7]: 675 fold
- fold difference of gene expression, treated/untreated HT29 cells (qRT-PCR): CXCL10 (IP-10) [7]: 5270 fold
- fold difference of gene expression, treated/untreated HT29 cells (qRT-PCR): CXCL11 (I-TAC/IP9) [7]: 1730 fold
- fold difference of gene expression, treated/untreated HT29 cells (qRT-PCR): IFNA2 [7]: 193 fold
- fold difference of gene expression, treated/untreated HT29 cells (qRT-PCR): IL5 [7]: 940 fold
- fold difference of gene expression, treated/untreated HT29 cells (qRT-PCR): IL8 [7]: 373 fold
- fold difference of gene expression, treated/untreated HT29 cells (qRT-PCR): IL10RA [7]: 3440 fold
- fold difference of gene expression, treated/untreated HT29 cells (qRT-PCR): LTB [7]: 2910 fold
- fold difference of gene expression, treated/untreated HT29 cells (qRT-PCR): TNF [7]: 7370 fold
- EC50 (human LTβR-Ig [8]): 0.2 nM
- EC50 (human HER2-Fc [9]): 0.05 nM
- EC50 (human HVEM-Ig [10]): 0.01 nM
- EC50 [11]: 0.5 nM
- EC50 (murine HER2-Fc [12]): 0.0114 µg/mL

B2: 71F10 Fab-hLIGHT fusion with the G4S delta 4 linker (BIIB71F10-131) (other)
heavy: EVQLLESGGGLVQPGGSLRLSCAASGFTFSSYGMVWVRQAPGKGLEWVSSISSSGGLTWYADSVKGRFTISRDNSKNTLYLQMNSLRAEDTAVYYCASPPGIAVARDYWGQGTLVTVSSASTKGPSVFPLAPSSKSTSGGTAALGCLVKDYFPEPVTVSWNSGALTSGVHTFPAVLQSSGLYSLSSVVTVPSSSLGTQTYICNVNHKPSNTKVDKKVEPKSCDKGGGGSLHWRLGEMVTRLPDGPAGSWQERRSHEVNPAAHLTGANSSLTGSGGPLLWETQLGLAFLRGLSYHDGALVVTKAGYYYIYSKVQLGGVGCPLGLASTITHGLYKRTPRYPEELELLVSQQSPCGRATSSSRVWWDSSFLGGVVHLEAGEEVVVRVLDERLVRLRDGTRSYFGAFMV
light: DIQMTQSPSSLSASVGDRVTITCRASQGISNYLAWYQQKPGKVPKLLIYAASTLQSGVPSRFSGSGSGTDFTLTISSLQPEDVATYYCQKYNSALLTFGGGTKVEIKRTVAAPSVFIFPPSDEQLKSGTASVVCLLNNFYPREAKVQWKVDNALQSGNSQESVTEQDSKDSTYSLSSTLTLSKADYEKHKVYACEVTHQGLSSPVTKSFNRGEC
notes: Trimer of Fab-LIGHT units; also called pBIIB71F10-131
- EC50 (human HVEM-Ig [1]): 0.5 nM
- EC50 (murine HER2-Fc [13]): 0.0139 µg/mL
- EC50 (human LTβR-Ig [2]): 0.01 nM
- EC50 (human HER2-Fc [14]): 0.00608 µg/mL
- koff (human LTβR-Ig [4]): 0.000183 s⁻¹
- koff (human HER2-Fc [5]): 0.000307 s⁻¹
- EC50 (human LTβR-Ig [8]): 0.2 nM
- EC50 (human HER2-Fc [9]): 0.05 nM
- EC50 (human HVEM-Ig [10]): 0.01 nM
- EC50 [11]: 0.5 nM
- binding result (human LTBR-mIgG fusion): binds
